Data reported in patent publication US20220288193A1.

What was measured:
[1] = target: antigen X (known antigen used as control in the ELISA of Table 1); assay: indirect ELISA, positive control: antigen X coated, anti-X-IgY applied, row A
[2] = target: antigen X (known antigen used as control in the ELISA of Table 1); assay: indirect ELISA, positive control: antigen X coated, anti-X-IgY applied, row B

**Q.** “anti-X-IgY (control IgY against antigen X) (antibody)” was tested. Which OD [1] did it give?
**A.** 1.33 OD

**Q.** And the OD [2]?
**A.** 1.43 OD
